Measurements: FireProtDB (doi:10.1021/bi010565n)

B1: Guanyl-specific ribonuclease T1, P00651 (parent)
chain: MMYSKLLTLTTLLLPTALALPSLVERACDYTCGSNCYSSSDVSTAQAAGYQLHEDGETVGSNSYPHKYNNYEGFDFSVSSPYYEWPILSSGDVYSGGSPGADRVVFNENNQLAGVITHTGASGNNFVECT

Variants of: B1
Settings: Aspergillus oryzae (strain ATCC 42149 / RIB 40); pH 7; 25 °C; Thermal; DSC; MOPS 30 mM; reversible: yes(0.18); structure 1RN1; whole UniProt chain shown
For V42C, the “ddG of mutation (higher = less stable)” value was 4.68 kcal/mol and the “heat capacity change of unfolding” value was 1.29 kcal/mol/K.

Same assay, conditions: Aspergillus oryzae (strain ATCC 42149 / RIB 40); pH 7; 25 °C; Urea; CD; MOPS 30 mM; reversible: yes(0.18); structure 1RN1; whole UniProt chain shown
With V42C the “ddG of mutation (higher = less stable)” value was 5.3 kcal/mol.

Same assay, conditions: Aspergillus oryzae (strain ATCC 42149 / RIB 40); pH 7; Thermal; CD; MOPS 30 mM; reversible: yes(0.18); structure 1RN1; whole UniProt chain shown
With V42C the Tm was 41.6 °C and the “change of melting temperature, mutant - wild type (higher = more stable)” value (“change of melting temperature, mutant” below) was -9.6 °C.

Same assay, conditions: Aspergillus oryzae (strain ATCC 42149 / RIB 40); pH 7; Thermal; DSC; MOPS 30 mM; reversible: yes(0.18); structure 1RN1; whole UniProt chain shown
With V42C the Tm was 42.6 °C and the “change of melting temperature, mutant” value was -8.9 °C.

Same assay, conditions: Aspergillus oryzae (strain ATCC 42149 / RIB 40); pH 7; 25 °C; Thermal; DSC; MOPS 30 mM; reversible: yes(0.98); structure 1RN1; whole UniProt chain shown
With V42A the “ddG of mutation (higher = less stable)” value was 2.19 kcal/mol and the “heat capacity change of unfolding” value was 1.29 kcal/mol/K.
In the case of V104T, the “ddG of mutation (higher = less stable)” value is reported as 3.1 kcal/mol and the “heat capacity change of unfolding” value is reported as 1.29 kcal/mol/K.

Same assay, conditions: Aspergillus oryzae (strain ATCC 42149 / RIB 40); pH 7; Thermal; CD; MOPS 30 mM; reversible: yes(0.98); structure 1RN1; whole UniProt chain shown
In the case of V42A, the Tm is reported as 43 °C and the “change of melting temperature, mutant” value is reported as -8.2 °C.
In the case of V104T, the Tm is reported as 41.4 °C and the “change of melting temperature, mutant” value is reported as -9.8 °C.

Same assay, conditions: Aspergillus oryzae (strain ATCC 42149 / RIB 40); pH 7; Thermal; DSC; MOPS 30 mM; reversible: yes(0.98); structure 1RN1; whole UniProt chain shown
With V42A the Tm was 44.5 °C and the “change of melting temperature, mutant” value was -7 °C.
For V104T, the Tm was 40.2 °C and the “change of melting temperature, mutant” value was -11.3 °C.

Same assay, conditions: Aspergillus oryzae (strain ATCC 42149 / RIB 40); pH 7; 25 °C; Urea; CD; MOPS 30 mM; reversible: yes(0.98); structure 1RN1; whole UniProt chain shown
For V104T, the “ddG of mutation (higher = less stable)” value was 4.08 kcal/mol.

Same assay, conditions: Aspergillus oryzae (strain ATCC 42149 / RIB 40); pH 7; 25 °C; Thermal; DSC; MOPS 30 mM; reversible: yes(1.03); structure 1RN1; whole UniProt chain shown
For V42S, the “ddG of mutation (higher = less stable)” value was 4.71 kcal/mol and the “heat capacity change of unfolding” value was 1.29 kcal/mol/K.

Same assay, conditions: Aspergillus oryzae (strain ATCC 42149 / RIB 40); pH 7; 25 °C; Urea; CD; MOPS 30 mM; reversible: yes(1.03); structure 1RN1; whole UniProt chain shown
For V42S, the “ddG of mutation (higher = less stable)” value was 4.66 kcal/mol.

Same assay, conditions: Aspergillus oryzae (strain ATCC 42149 / RIB 40); pH 7; Thermal; CD; MOPS 30 mM; reversible: yes(1.03); structure 1RN1; whole UniProt chain shown
With V42S the Tm was 35.6 °C and the “change of melting temperature, mutant” value was -15.6 °C.

Same assay, conditions: Aspergillus oryzae (strain ATCC 42149 / RIB 40); pH 7; Thermal; DSC; MOPS 30 mM; reversible: yes(1.03); structure 1RN1; whole UniProt chain shown
In the case of V42S, the Tm is reported as 36.9 °C and the “change of melting temperature, mutant” value is reported as -14.6 °C.

Same assay, conditions: Aspergillus oryzae (strain ATCC 42149 / RIB 40); pH 7; 25 °C; Thermal; DSC; MOPS 30 mM; reversible: yes(1.04); structure 1RN1; whole UniProt chain shown
With V42T the “ddG of mutation (higher = less stable)” value was 4.1 kcal/mol and the “heat capacity change of unfolding” value was 1.29 kcal/mol/K.

Same assay, conditions: Aspergillus oryzae (strain ATCC 42149 / RIB 40); pH 7; 25 °C; Urea; CD; MOPS 30 mM; reversible: yes(1.04); structure 1RN1; whole UniProt chain shown
With V42T the “ddG of mutation (higher = less stable)” value was 3.2 kcal/mol.

Same assay, conditions: Aspergillus oryzae (strain ATCC 42149 / RIB 40); pH 7; Thermal; DSC; MOPS 30 mM; reversible: yes(1.04); structure 1RN1; whole UniProt chain shown
With V42T the Tm was 42.1 °C and the “change of melting temperature, mutant” value was -9.4 °C.

Same assay, conditions: Aspergillus oryzae (strain ATCC 42149 / RIB 40); pH 7; 25 °C; Urea; CD; MOPS 30 mM; structure 1RN1; whole UniProt chain shown
With V104A the “ddG of mutation (higher = less stable)” value was 4.08 kcal/mol.
In the case of V104C, the “ddG of mutation (higher = less stable)” value is reported as 3.67 kcal/mol.
In the case of V115C, the “ddG of mutation (higher = less stable)” value is reported as 3.54 kcal/mol.
In the case of V115S, the “ddG of mutation (higher = less stable)” value is reported as 4.87 kcal/mol.
For V115T, the “ddG of mutation (higher = less stable)” value was 3.07 kcal/mol.

Same assay, conditions: Aspergillus oryzae (strain ATCC 42149 / RIB 40); pH 7; Thermal; CD; MOPS 30 mM; structure 1RN1; whole UniProt chain shown
In the case of V104A, the Tm is reported as 43.3 °C and the “change of melting temperature, mutant” value is reported as -7.9 °C.
With V115C the Tm was 46.3 °C and the “change of melting temperature, mutant” value was -4.9 °C.
For V115S, the Tm was 29.6 °C and the “change of melting temperature, mutant” value was -21.6 °C.
With V115T the Tm was 38 °C and the “change of melting temperature, mutant” value was -13.2 °C.
For V104S, the Tm was 34.6 °C and the “change of melting temperature, mutant” value was -16.6 °C.
